Results on two substances are retold here after paper PMC5408928.

For the assay, the target named is yeast 80S ribosome (S. cerevisiae). As to the kind of experiment: crystal structure.

In the case of “hypusinated eIF5A from Saccharomyces cerevisiae (from UniProt P23301 1-157) (natural protein)”, the eIF5A-occupancy refinement (%) is 97%. Take “unmodified eIF5A from S. cerevisiae (from UniProt P23301 1-157) (natural protein)”: the eIF5A-occupancy refinement (%) came to 88%.
